In patent publication US20240360201A1 (BIOCYTOGEN PHARMACEUTICALS BEIJING, published 2024):

Molecular target: human CTLA4 (hCTLA4-His) (human, UniProt P16410 36-161, limits assumed)
Test: SPR Biacore T200; binder captured on protein A chip, target as analyte
Method: Binding affinities of the fusion proteins against human CTLA4 (hCTLA4-His) or human PD-L1 (hPDL1) were measured by surface plasmon resonance (SPR) using Biacore™ T200 biosensor equipped with pre-immobilized protein A sensor chips. A CTLA4 antibody CT4-4G12-IgG1 (CT4) was used as a control. ATOR1015-CD86 (CD86) and KN035-IgG1 (with D265A mutation in heavy chain constant domain) were also used as controls.

Chain of human CTLA4 (hCTLA4-His) (P16410 36-161 limits assumed): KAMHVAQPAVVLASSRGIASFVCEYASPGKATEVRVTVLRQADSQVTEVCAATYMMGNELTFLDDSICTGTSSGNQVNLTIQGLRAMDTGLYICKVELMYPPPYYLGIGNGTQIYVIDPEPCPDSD

| Kd | koff | kon | Binder |
| --- | --- | --- | --- |
| 1.74 nM | 0.000693 s⁻¹ | 397000 M⁻¹ s⁻¹ | PDL1-CD86-3A-IgG1 (antibody, IgG1) heavy: EVQLLESGGGLVQPGGSLRLSCAASGFTFSSYIMMWVRQAPGKGLEWVSSIYPSGGITFYADTVKGRFTISRDNSKNTLYLQMNSLRAEDTAVYYCARIKLGTVTTVDYWGQGTLVTVSSASTKGPSVFPLAPSSKSTSGGTAALGCLVKDYFPEPVTVSWNSGALTSGVHTFPAVLQSSGLYSLSSVVTVPSSSLGTQTYICNVNHKPSNTKVDKKVEPKSCDKTHTCPPCPAPELLGGPSVFLFPPKPKDTLMISRTPEVTCVVVDVSHEDPEVKFNWYVDGVEVHNAKTKPREEQYNSTYRVVSVLTVLHQDWLNGKEYKCKVSNKALPAPIEKTISKAKGQPREPQVYTLPPSRDEGGGGSGGGGSAPLKIQAYFNETADLPCQFANSQNLSLSELVVFWQDQENLVLNEVYLGKERFDSVDSKYMGRTSFDSDSWTLRLHNLQIKDKGRYQCIIHHKKPTGMINIHQMNSELSVLAGGGGSGGGGSVSLTCLVKGFYPSDIAVEWESNGQPENNYKTTPPVLDSDGSFFLYSKLTVDKSRWQQGNVFSCSVMHEALHNHYTQKSLSLSPGK light: QSALTQPASVSGSPGQSITISCTGTSSDVGGYNYVSWYQQHPGKAPKLMIYDVSNRPSGVSNRFSGSKSGNTASLTISGLQAEDEADYYCSSYTSSSTRVFGTGTKVTVLGQPKANPTVTLFPPSSEELQANKATLVCLISDFYPGAVTVAWKADGSPVKAGVETTKPSKQSNNKYAASSYLSLTPEQWKSHRSYSCQVTHEGSTVEKTVAPTECS |
| 1.88 nM | 0.000684 s⁻¹ | 364000 M⁻¹ s⁻¹ | PDL1-CD86-3A-IgG4 (antibody) chain 1: EVQLLESGGGLVQPGGSLRLSCAASGFTFSSYIMMWVRQAPGKGLEWVSSIYPSGGITFYADTVKGRFTISRDNSKNTLYLQMNSLRAEDTAVYYCARIKLGTVTTVDYWGQGTLVTVSSASTKGPSVFPLAPCSRSTSESTAALGCLVKDYFPEPVTVSWNSGALTSGVHTFPAVLQSSGLYSLSSVVTVPSSSLGTKTYTCNVDHKPSNTKVDKRVESKYGPPCPSCPAPEFLGGPSVFLFPPKPKDTLMISRTPEVTCVVVDVSQEDPEVQFNWYVDGVEVHNAKTKPREEQFNSTYRVVSVLTVLHQDWLNGKEYKCKVSNKGLPSSIEKTISKAKGQPREPQVYTLPPSQEEGGGGSGGGGSAPLKIQAYFNETADLPCQFANSQNLSLSELVVFWQDQENLVLNEVYLGKERFDSVDSKYMGRTSFDSDSWTLRLHNLQIKDKGRYQCIIHHKKPTGMINIHQMNSELSVLAGGGGSGGGGSVSLTCLVKGFYPSDIAVEWESNGQPENNYKTTPPVLDSDGSFFLYSRLTVDKSRWQEGNVFSCSVMHEALHNHYTQKSLSLSLGK chain 2: QSALTQPASVSGSPGQSITISCTGTSSDVGGYNYVSWYQQHPGKAPKLMIYDVSNRPSGVSNRFSGSKSGNTASLTISGLQAEDEADYYCSSYTSSSTRVFGTGTKVTVLGQPKANPTVTLFPPSSEELQANKATLVCLISDFYPGAVTVAWKADGSPVKAGVETTKPSKQSNNKYAASSYLSLTPEQWKSHRSYSCQVTHEGSTVEKTVAPTECS |
